Experimental findings from paper PMC5908797, “Evolutionary plasticity of the NHL domain underlies distinct solutions to RNA recognition” are described below.

For series [1], the target named is T1, CeLIN41 filamin-NHL (Caenorhabditis elegans, UniProt Q9U489 691-1147).
T1 sequence: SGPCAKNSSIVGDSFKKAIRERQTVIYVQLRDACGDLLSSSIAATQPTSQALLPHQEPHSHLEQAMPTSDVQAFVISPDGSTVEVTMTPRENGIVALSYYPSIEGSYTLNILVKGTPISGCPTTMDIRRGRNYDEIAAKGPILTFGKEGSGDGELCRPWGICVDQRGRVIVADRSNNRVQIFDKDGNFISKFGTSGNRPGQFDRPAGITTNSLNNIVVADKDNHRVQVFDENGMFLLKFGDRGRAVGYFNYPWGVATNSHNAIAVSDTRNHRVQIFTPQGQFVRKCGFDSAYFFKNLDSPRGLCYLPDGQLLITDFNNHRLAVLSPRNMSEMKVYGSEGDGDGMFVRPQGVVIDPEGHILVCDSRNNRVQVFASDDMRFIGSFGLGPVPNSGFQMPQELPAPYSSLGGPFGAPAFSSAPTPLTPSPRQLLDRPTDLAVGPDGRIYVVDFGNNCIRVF
Nature of the series: EMSA; FP: 20 mM HEPES, 200 mM NaCl, 0.05% Tween20, 100 nM Cy5-RNA, 30 min room temp; EMSA: 1x of 2x buffer (20 mM Hepes pH 8, 100 mM KCl, 200 mM NaCl, 0.2 mM EDTA, 20 mM DTT, 2 mM MgCl2, 2 mM CaCl2, 0.2 mM ZnSO4, 60% glycerol, heparin, E. coli tRNA), 5 uM protein stock (1 ul in 8 ul), ~2 nM RNA, room temp. The conditions noted are these: protein: recombinant, tags: N-terminal Strep tag, TEV site, label: 32P (radioactive) body label. (In EMSA bound probe runs differently from free probe, usually more slowly.)

Series [2] has as its target T1, CeLIN41 filamin-NHL. Nature of the series: EMSA; restored to wild-type level; FP: 20 mM HEPES, 200 mM NaCl, 0.05% Tween20, 100 nM Cy5-RNA, 30 min room temp; EMSA: 1x of 2x buffer (20 mM Hepes pH 8, 100 mM KCl, 200 mM NaCl, 0.2 mM EDTA, 20 mM DTT, 2 mM MgCl2, 2 mM CaCl2, 0.2 mM ZnSO4, 60% glycerol, heparin, E. coli tRNA), 5 uM protein stock (1 ul in 8 ul), ~2 nM RNA, room temp. The conditions noted are these: protein: recombinant; tags: N-terminal Strep tag, TEV site; label: 32P (radioactive) body label; stems restored by compensatory mutations.

For series [3], the target named is T1, CeLIN41 filamin-NHL. Nature of the series: EMSA; restored; FP: 20 mM HEPES, 200 mM NaCl, 0.05% Tween20, 100 nM Cy5-RNA, 30 min room temp; EMSA: 1x of 2x buffer (20 mM Hepes pH 8, 100 mM KCl, 200 mM NaCl, 0.2 mM EDTA, 20 mM DTT, 2 mM MgCl2, 2 mM CaCl2, 0.2 mM ZnSO4, 60% glycerol, heparin, E. coli tRNA), 5 uM protein stock (1 ul in 8 ul), ~2 nM RNA, room temp. The conditions noted are these: protein: recombinant; tags: N-terminal Strep tag, TEV site; label: 32P (radioactive) body label; SL I and III restored.

The target in series [4] is T1, CeLIN41 filamin-NHL. Nature of the series: fluorescence polarization; FP: 20 mM HEPES, 200 mM NaCl, 0.05% Tween20, 100 nM Cy5-RNA, 30 min room temp; EMSA: 1x of 2x buffer (20 mM Hepes pH 8, 100 mM KCl, 200 mM NaCl, 0.2 mM EDTA, 20 mM DTT, 2 mM MgCl2, 2 mM CaCl2, 0.2 mM ZnSO4, 60% glycerol, heparin, E. coli tRNA), 5 uM protein stock (1 ul in 8 ul), ~2 nM RNA, room temp. The conditions noted are these: protein: recombinant, tags: N-terminal Strep tag, TEV site, label: 5'-Cy5, hairpin. For orientation: Polarisation of emitted light reports the rotation of a fluorescent probe.

B1: mab-10 condensed 3'UTR (structured_RNA)
RNA: UCUAGUUUUCAAAAAACCCCCCAUUUUUCCGGCGGUUUUUCAAAAACCAAUGCCAAGCUCUCAUAUAAUGGGAGUCUAAACACAGUUCGGUUCCAAAACUGAAAAACUUCAAUUUCGCAUCCAAUGCAUUGCAAGUUGAUUGCUUUUCACAAAAAUUUUGCAUUUAAUGCAGUGAAAAUUUUCCGGUCAUUCGAAAUGGCCUAAUUUGCUCCAAAAA
For the molecule B1, in the series with CeLIN41 filamin-NHL [1] (five tri-loop stem-loops), the binding result is given as “binds”.

B2: mab-10 condensed 3'UTR mut (structured_RNA)
RNA: UCUAGUUUUCAAAAAACCCCCCAUUUUUCCGGCGCUUUUUCAAAAACCAAUGCCAAGCUCUGAUAUAAUGGGAGUCUAAACACAGUUCGGUUCCAAAACUGAAAAACUUCAAUUUCGGAUCCAAUGCAUUGCAAGUUGAUUGCUUUUCACAAAAAUUUUGGAUUUAAUGCAGUGAAAAUUUUCCGGUGAUUCGAAAUGGCCUAAUUUGCUCCAAAAA
Regarding B2, the binding result in the series with CeLIN41 filamin-NHL [1] (five stems disrupted) is on record as “no binding”.

B3: mab-10 condensed 3'UTR mut-res (structured_RNA)
RNA: UCUAGUUUUCAAAAAACCCCCCAUUUUUCCGGCGCUUUUUCAAAAAGCAAUGCCAAGCUCUGAUAUAAUCGGAGUCUAAACACAGUUCGGUUCCAAAACUGAAAAACUUCAAUUUCGGAUCCAAUCCAUUGCAAGUUGAUUGCUUUUCACAAAAAUUUUGGAUUUAAUCCAGUGAAAAUUUUCCGGUGAUUCGAAAUCGCCUAAUUUGCUCCAAAAA
In the case of B3, the binding result in the series with CeLIN41 filamin-NHL [1] (five stems restored) is reported as “binds”.

B4: mab-10 part 4 (structured_RNA)
RNA: UCGCAUCCAAUGCAUUGCAAGUUGAUUGCUUUUAUAAAUUUUUGGGUCUCGAAGCGAAAAGCCCAUAGGAUUUUCACAAAAAUUUUGCAUUUAAUGCAGUGAAAAUUCAAAAAAUUCAAAGAUUUUUCUGAAUAGAUCAAAUUUUCAAAUUUUCCGGUCAUUCGAAAUGGCCUAAUUUGCUCCAAAAAUUUGAAUAAUCC
B4: the binding result with CeLIN41 filamin-NHL [1] (tri-loop stem-loops) is recorded as “binds”.

B5: mab-10 part 4 mut-res (structured_RNA)
RNA: UCGGAUCCAAUCCAUUGCAAGUUGAUUGCUUUUAUAAAUUUUUGGGUCUCGAAGCGAAAAGCCCAUAGGAUUUUCACAAAAAUUUUGGAUUUAAUCCAGUGAAAAUUCAAAAAAUUCAAAGAUUUUUCUGAAUAGAUCAAAUUUUCAAAUUUUCCGGUGAUUCGAAAUCGCCUAAUUUGCUCCAAAAAUUUGAAUAAUCC
Regarding B5, the binding result with CeLIN41 filamin-NHL [2] is on record as “binds”.

B6: mab-10 part 2 (structured_RNA)
RNA: UAAAUUCCCGCCCCCUUCGCUCGGAGUCAUAUAAUUUCCUUCUCUUCCUAUCACUUUUUUGUCUAGUUUUCAAAAAACCCCCCAUUUUUCCGGCGGUUUUUCAAAAACCAAUGCCAAGCUCUCAUAUAAUGGGAGUCUAAACACAGUUCGGUUCCAAAACCAACGCCCACGGCCCCGCCCCCAAUUAGAUAAUUUAAAUA
On to B6, for which the binding result in the series with CeLIN41 filamin-NHL [1] (tri-loop stem-loops) was “binds”.

B7: mab-10 part 2 mut-res (structured_RNA)
RNA: UAAAUUCCCGCCCCCUUCGCUCGGAGUCAUAUAAUUUCCUUCUCUUCCUAUCACUUUUUUGUCUAGUUUUCAAAAAACCCCCCAUUUUUCCGGCGCUUUUUCAAAAAGCAAUGCCAAGCUCUGAUAUAAUCGGAGUCUAAACACAGUUCGGUUCCAAAACCAACGCCCACGGCCCCGCCCCCAAUUAGAUAAUUUAAAUA
On to B7, for which, in the series with CeLIN41 filamin-NHL [2], the binding result was “binds”.

B8: lin-29A 5'UTR (structured_RNA)
RNA: GUUCCGAACCAAUUCGCCUAGCGAACCUUGGAGUCCAACUCCGUUUUUACUCUUUUCUGAAAAGAGCCUACUAAAUAUUGGAACUAUAAUCAAACUAUUCGAUCAAAUCGACACACCUACUAGAUAUCAAAUAUCUAAUACUGGAACCAAGGCUUGGGUAACCUGAAACUGUGCGAAUUUGGAGCAGAAAUAUU
On to B8, for which the binding result in the series with CeLIN41 filamin-NHL [1] (four tri-loop stem-loops) is reported as “binds”.

B9: lin-29A mut2-res (structured_RNA)
RNA: GUUCCGAACCAAUUCGCCUAGCGAACCUUGGACUCCAAGUCCGUUUUUACUCUUUUCUGAAAAGAGCCUACUAAAUAUUGGAACUAUAAUCAAACUAUUCCAUCAAAUGGACACACCUACUAGAUAUCAAAUAUCUAAUACUGGAACCAAGGCUUGGGUAACCUGAAACUGUGCGAAUUUGGAGCAGAAAUAUU
On to B9, for which the binding result with CeLIN41 filamin-NHL [3] was “binds”.

As for GCUGACCAACUCC (structured_RNA) [Ctrl (5-nt loop)], in the series with CeLIN41 filamin-NHL [4] (5 nt loop), the binding result is reported as “no binding”. GGAGUCCAACUCC (structured_RNA) [L1 (lin-29A SL I, WT LRE)]: in the series with CeLIN41 filamin-NHL [4] (5 bp stem, tri-loop), the Kd was determined as 1320 nM.

In general, Kd refers to the constant that tells how readily two partners part at equilibrium.
